# The nanobody polyreactivity screen of Harvey et al. (2022)
# Experiment: yeast display, Sf9 membrane polyspecificity reagent, FACS + sequencing; frameworks hold sequencing errors
# Outline: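 Nanobodies came from a synthetic yeast display library in Saccharomyces cerevisiae BJ5465, induced with galactose for 36–48 hours and stained for 1 hour at 4 °C with 10% biotinylated, detergent-solubilized Sf9 membrane reagent. Cells were enriched on streptavidin microbeads and then FACS-sorted, with low and high (top ~1%) gates set on anti-HA fluorescence for expression and streptavidin fluorescence for reagent binding. Each polyreactivity label reflects the gate a clone came from. Genes were amplified by colony PCR, sequenced by MiSeq 2 × 250 and filtered by CDR length.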
row,Sequence,polyreactivity (PSR sort gate)
1,QVQLVESGGGLVQAGGSLRLSCAASGIIFKSYTMGWYRQAPGKERELVAAINSSGDRTYYADSVKGRFTISRDNAKNTVYLQMNSLKPEDTAVYYCAAAPVKKSRFRYDYWGQGTQVTVSS,high polyreactivity
2,QVQLVESGGGLVQAGGSLRLSCAASGIIFKVNVMGWYRQAPGKERELVAAISWSGGSTYYADSVKGRFTISRDNAKNTFYLQMNILKPEDTAVYYCAAYSYVYGERYYFWGQGTQLTVSS,high polyreactivity
3,QVQLVESGGGLVQAGGSLRLSCAASGIIFLRNTMGWNRQAPGKERELVASISRRGGSTYYADSVKGRFTISRDNAKNTVYFQLNSLNPEDTAVYYCAATVRGKRSTYDYWGQGTQVTVSS,high polyreactivity
4,QVQLVESGGGLVQAGGSLRLSCAASGIIFLSYAIGWYRQAPGKERELFAAISSGVSTYSADSVKGRFTISRDNAKNPVYFQMNSLKPEDTAVYFCAAYYLWPGYQFRPYDYWGQGTQVTVSS,low polyreactivity
5,QVQLVESGGGLVQAGGSLRLSCAASGIIFLSYAMGWYRQAPGKERELVAAIRSRGDSTYYADSVKGRFTISRDNAKNTVYLQMNSLKAEDTAVYYCNARQRRYPYGYWGQGTQVTVSS,high polyreactivity
6,QVQLVESGGGLVQAGGSLRLSCAASGIIFLYYAMGWYRQAPGKERELVAAISRSGGRTFYADSVKGRFTISRDNAKNTVFLQMNSLKAEDTAVYYCAADALIYYKGSPDYYWGQGTQVTVSS,high polyreactivity
7,QVQLVESGGGLVQAGGSLRLSCAASGIIFNSYAMGWYRQAPGKERELVAAISRSGTSTYYADSVKGRFTISRDNAKNTVYLQMNSLKPEDTAVYYCNVARGYYSYSSRIDYYWGQGTQVTVSS,high polyreactivity
8,QVQLVESGGGLVQAGGSLRLSCAASGIIFNTYVMGWYRQAPGKERELVAAISRRGGSTYYADSVKGRFTISRDNAKNTVYLQMNSLKPEDTAVYYCAADVLYQQAGSYYWGQGTQVTVSS,high polyreactivity
9,QVQLVESGGGLVQAGGSLRLSCAASGIIFNYYAMGWYRQAPGKERELVAAIRISDTTYYADSVKGRFTISRDNAKNTVYLQMNSLKPEDTAVYYCNTLYYYYYGEVYVRDYDYWGQGTQVTVSS,low polyreactivity
10,QVQLVESGGGLVQAGGSLRLSCAASGIIFNYYTMGWYRQAPGKERELVAVISWRGGSTFYADSVKGRFTISRDNAKNTVYLQMNSLKPEDTAVYYCAAVLFGDYPPVYYPTEYDYWGQGTQVTVSS,low polyreactivity
11,QVQLVESGGGLVQAGGSLRLSCAASGIIFPHYAMGWYRQEPGKERELVAAITRSGGSTYYADSVKGRFTISRDNAKNTVYLQMNSLKPEDTAVYYCAAKRPVQSGGYNYWGQGTQVTVSS,high polyreactivity
12,QVQLVESGGGLVQAGGSLRLSCAASGIIFPLYMGWDRQAPGTERVLVAAINSIGGRTYYADSVKGRFTISRDNAKNTVYLQMNSLKPEDTAVYYCNAVPVGWRYRQYDYWGQGTQVTVSS,high polyreactivity
13,QVQLVESGGGLVQAGGSLRLSCAASGIIFPRYAMGWYRQAPGKERELVAAITIGGRTNYSDSVKGRFTISRDNAKNTVYLQMNSLKPEDTAVYYCAAQTYVPYYEYDYWGQGTQVTVSS,low polyreactivity
14,QVQLVESGGGLVQAGGSLRLSCAASGIIFPRYMGWYRQEPGKERELVAAIRWSSDDTNYADSVKGRFTISRDNAKNTVYLQMNSLKPEDSAVYYCAKDSLYGVPFDVDYWGQGTQVTVSS,low polyreactivity
15,QVQLVESGGGLVQAGGSLRLSCAASGIIFPTYAMGWYRQAPGKERELVAAITSGGSTYYADSVKGRFTISRDNAKNTVYLQMNSLKPEDTAVYYCAAAYLGYGAVQPSYEGGYWGQGTQVTVSS,low polyreactivity
16,QVQLVESGGGLVQAGGSLRLSCAASGIIFPTYDMGWYRQAPGKERELVAAITWSTGSTTYADSVKGRFTISRDNAKNTVYLQMNSQKPEDTAVYYCNKDSEGSGGEFDYWGQGTQVTVSS,low polyreactivity
17,QVQLVESGGGLVQAGGSLRLSCAASGIIFPVYAMGWYRQAPGKERELVATIDSGGGTYYADSVKGRFTISRDNAKNTVYLQMNSLKPEDTAVYYCAADLWVGLVSLWDGYVEYDYWGQGTQVTVSS,low polyreactivity
18,QVQLVESGGGLVQAGGSLRLSCAASGIIFPYYAMGWYRPAPGKERELVAASTGRGTSTYADSVKGRFTISRDNAKNTVYLQMNSRKPEDTAVYYCAAVGWFADFLFSDINGYYWGQGTQVTVSS,low polyreactivity
19,QVQLVESGGGLVQAGGSLRLSCAASGIIFPYYAMGWYRQAPGKERELVAGISSSGGITYADSVKGRFTISRDNAKNTVYLQMNSLKPEDTAVYYCAARYPARGTLYYWGQGTQVTVSS,low polyreactivity
20,QVQLVESGGGLVQAGGSLRLSCAASGIIFPYYAMGWYRQAPGKERELVAGISWSGGSTYYADSVKGRFTISRDNAKNTVYLQMNSLKPEDTAVYYCAADYPATPDDDYWGQGTQVTVSS,high polyreactivity
21,QVQLVESGGGLVQAGGSLRLSCAASGIIFQAYAMGWYRQAPGKERELVAAISYSGGSTYYADSVKGRFTISRDNAKNTVYLQMNSLKPEDTAVYYCAATFYGYFDSVFSWGYYYWGQGTQVTVSS,low polyreactivity
22,QVQLVESGGGLVQAGGSLRLSCAASGIIFQAYDMGWYRQAPGKERELVAAISYSGGSTYYADSVKGRFTISRDNAKNTVYLQMNSQKPEDTAVYYCAATFYGYFDSVFSWGYYYCGQGTQVTVSS,low polyreactivity

row,Sequence,polyreactivity (PSR sort gate)
1,QVQLVESGGGLVQAGGSLRLSCAASGIIFQFYAMGWYRQAPGKERELVAAISRSGGITHYADSVKGRFTISRDTAQNTVYLQMNSLKPEDTAVYYCAAVRQAYPRLDYWGQGTQVTVSS,high polyreactivity
2,QVQLVESGGGLVQAGGSLRLSCAASGIIFQFYAMVWYRQAPGKERELVAAISRSGGITHYADSVKGRFTISRDNAKNTVYLQMNILKPEDTAVYYCATRGTRSYFRTFYYWGQGTQVTVSS,high polyreactivity
3,QVQLVESGGGLVQAGGSLRLSCAASGIIFQGNAMGWYRQAPGKERELVAVITSRGGSTYYADSVKGRFTISRDNAKNTVYLQMNSLLPEDTAVYYCAKAKRYPQYYYWGQGTQVTVSS,high polyreactivity
4,QVQLVESGGGLVQAGGSLRLSCAASGIIFQNYDMGWYRQAPGKERELVAAITSGVSTYYADSVKGRFTIARYNAKNTVYLQMNSLKPEDTAVYYCAVVGGFRWIRMEYWGQGTQVTVSS,low polyreactivity
5,QVQLVESGGGLVQAGGSLRLSCAASGIIFQRNDMGWYRQAPGKEREFVAAITYIGGSTYYADSVKGRFTISRDNAKNTVYLQMNSLKPEDTAVYWGQGTQVTVSS,low polyreactivity
6,QVQLVESGGGLVQAGGSLRLSCAASGIIFQTYAMGWYRQAPGKERELVAAISRTGGSTYYADSVKGRFTISRDNAKITVYVQMHSLKPEDTAVYSCAAPRFAAPLRIGYVWGQVTQVTVSS,high polyreactivity
7,QVQLVESGGGLVQAGGSLRLSCAASGIIFQYYAMGGYRQAPGKERELVAAISWSGGSTYYADSVKGRFTISRDNAKNTVYLQMNSLKPEDTAVYYCAARSRSFWPYEGDYWGQGTQVTVSS,low polyreactivity
8,QVQLVESGGGLVQAGGSLRLSCAASGIIFRANAMGWYRQAPGKERELDAAISGRGSSTTYADSVKGRFTISRDNAKNTVYLQINSLKPEDTAVYYCAARLPYNNQVPGYYWGQGTQVTGSS,high polyreactivity
9,QVQLVESGGGLVQAGGSLRLSCAASGIIFRANAMGWYRQAPGKERELVAAISGRGSSTTYADSVKGRFTISRDNAKNTVYLQMNSLKPEDTAVYYCAAAGWSARGYNYWGQGTQVTVSS,high polyreactivity
10,QVQLVESGGGLVQAGGSLRLSCAASGIIFRANAMGWYRQAPGKERELVAAISGRGSSTTYADSVKGRFTISRDNAKNTVYLQMNSLKPEDTAVYYCAADTWYPGYYAYDYWGQGTQVTVSS,high polyreactivity
11,QVQLVESGGGLVQAGGSLRLSCAASGIIFRAYAMGWYRPAPGKERELVAAISRSGGSTYYADSVKGRFTISRDNAKNTVYLQMNSLKQEDTAVYYCAADTVWYLYYYWGQGSQVTVSS,high polyreactivity
12,QVQLVESGGGLVQAGGSLRLSCAASGIIFRFYSMGWYRQAPGKERELLAVITSRSDSTYYADSVKGRFTISRDNAKNTVYLQMNSLKPEDTAVYYCNARYPWYYRYSTYDYWGQGTQVTVSS,high polyreactivity
13,QVQLVESGGGLVQAGGSLRLSCAASGIIFRGNVMGWYRQAPGKERELVAAISGSGGRTYYADSVKGRFTISRDNAKNTVYLQMNSLKPEVTAVYYCNADKAIRYDYWGQGPQVTVSS,high polyreactivity
14,QVQLVESGGGLVQAGGSLRLSCAASGIIFRKNAMGWYRQAPGKERELVAAISSTGASTNYADSVKGRFTISRDNAKNTVYLQMNSLKPEDTAVYYCAASRTRYWKYDYWGQGTQVTVSS,high polyreactivity
15,QVQLVESGGGLVQAGGSLRLSCAASGIIFRNNAMGWYRQAPGKEREFVARISKRGGSTYYADSVKGRFTISRDNAKNTVYLQQNSLKPEDTAVYYCAKGYGSGSYLYDYWGQGTQVTVSS,high polyreactivity
16,QVQLVESGGGLVQAGGSLRLSCAASGIIFRPYAMGWYRQAPGKERELVAAISRGGRTKYADSVKGRFTISRDNAKNTVYLQMNSLKPEDTAVYYCAAQFRFTRLVGVAAEYDYGGQGTQVTVSS,low polyreactivity
17,QVQLVESGGGLVQAGGSLRLSCAASGIIFRPYAMGWYRQAPGKERELVAAITWSVTSTYYADSVKGRFTISRDNAKNTVYLQMNSLKPEDTAVYYCAATCSYGVSWYEYWGQGTQVTVSS,high polyreactivity
18,QVQLVESGGGLVQAGGSLRLSCAASGIIFRRYARGWYRQAPGKERELVAAITRGGITYYADSVKGRFTISRDNAKNTVYLQMNSLKPEDTAVYYCAATYSGTYSLGGGYDYWGQGTQVTVSS,low polyreactivity
19,QVQLVESGGGLVQAGGSLRLSCAASGIIFRSYAMGWYRQAPGKERELVAGISRRGGSTYYADSVKGRFTISRDNAKNTVYLQMNSLKPEDTAVYYCAKEVAYKPTGYDYWGQGTQVTVSS,high polyreactivity
20,QVQLVESGGGLVQAGGSLRLSCAASGIIFRVYTMGWYRQAPGKERELVAGISSGDSTSYADSVKGRFTISRDNAKNTVYLQMNSLKPEDTEVYYCNADGKAGGDYDYWGQGTQVTVSS,low polyreactivity
21,QVQLVESGGGLVQAGGSLRLSCAASGIIFRWNAMGSYRQAPGKERELVAAITRSGGSTYYADSVKGRFTISRDNAKNTVYLQMNSLKPEDTAVYYCAAEYYAPRYKFDYWGQGTQVTVSS,high polyreactivity
